Test results: the supplement of paper PMC9170038

System: MS2 coat protein
Assay: apparent KD of MS2 coat protein; higher = weaker reporter binding
Settings: Eterna round: R107
Summary of the method: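 In 100 mM Tris-HCl pH 7.5 with 80 mM KCl and 4 mM MgCl2, and without or with constant ligand, SNAP-549-labelled MS2 coat protein was titrated in twofold steps from 0.7 or 1.5 nM to 3 µM. Per-step times went from 0.8–1.5 h down to 10–20 min. The RNA switches were transcribed on-chip from Illumina sequencing clusters, and apparent KD is the per-design median of normalised cluster binding-curve fits.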

[1] = input ligand: theophylline 20 uM
[2] = input ligand: theophylline 2 mM
[3] = input ligand: tryptophan 2.4 mM

GGAUUAGAGGCGGCCGCCACUGGAACAUGAGGAUCACCCAUGUAGUGCAUGUAAUUAACCUCGAUCAGGACCGGGCCGAUAGUCA [Exclusion - Tryptophan B / A]
apparent KD of MS2 coat protein (input ligand: arginine 13.2 mM): 51.9 nM
apparent KD of MS2 coat protein [1]: 85.2 nM
apparent KD of MS2 coat protein [2]: 67.2 nM

CACAUUUUUAGAAGGGCGGUUUCACUCCUGCGAGGACCGGUACGGCCGCCACUCGACAUGAGGAUCACCCAUGUGGAGAAGUUAG [Laesedti]
apparent KD of MS2 coat protein (input ligand: arginine 13.2 mM): 18.4 nM
apparent KD of MS2 coat protein [1]: 27.9 nM
apparent KD of MS2 coat protein [2]: 30.5 nM

AAAUAAAUACAUGAGGAUCACCCAUGUGAAGGAGCGCGCGUUAGCGCAGGUAGGUCGCACAUGAAAGGGAAGCGAAAGAAAUAAU [MAT - Exclusion Arginine A - Mod of Eli - D16]
apparent KD of MS2 coat protein (input ligand: arginine 13.2 mM): 24.9 nM
apparent KD of MS2 coat protein (input ligand: none): 19 nM
apparent KD of MS2 coat protein [1]: 28.6 nM
apparent KD of MS2 coat protein [2]: 24.3 nM
apparent KD of MS2 coat protein [3]: 22.2 nM

GGACUAACCAGAAGGAGCGACGCAAAGCAGAAACUGCAUCCUCCGCACGAGGAUCACCCGUGUCAGGUAGGUCGCUGGUUAGUCG [ArgBX 28]
apparent KD of MS2 coat protein (input ligand: arginine 13.2 mM): 18.8 nM
apparent KD of MS2 coat protein (input ligand: none): 17.7 nM
apparent KD of MS2 coat protein [1]: 24.7 nM
apparent KD of MS2 coat protein [2]: 26.3 nM
apparent KD of MS2 coat protein [3]: 21.7 nM

UACCGAGAGGGAAGGAGCGCGAUAACAUAACAUGAGGAUCACCCAUGUAAGAAAUUAAUCAUGCAGGUAGGUCGCCCAAGCGGAU [Same State Arginine B GF 2]
apparent KD of MS2 coat protein (input ligand: arginine 13.2 mM): 16.7 nM
apparent KD of MS2 coat protein (input ligand: none): 15.4 nM
apparent KD of MS2 coat protein [1]: 21.5 nM
apparent KD of MS2 coat protein [2]: 15.8 nM
apparent KD of MS2 coat protein [3]: 14.7 nM

CACGGAUGAGUGGAUCACCCUCGUAAUAACCGAGGACCGGUACGGCCGCCACUCGAAAACCGUGACCUGUACGAAAAGUGCAGGA
apparent KD of MS2 coat protein (input ligand: arginine 13.2 mM): 56.7 nM
apparent KD of MS2 coat protein (input ligand: none): 36.5 nM
apparent KD of MS2 coat protein [1]: 399 nM
apparent KD of MS2 coat protein [2]: 1500 nM
apparent KD of MS2 coat protein [3]: 39.8 nM

ACCUGUACGAAAAGUGCAGGACACGGAAUACGAGGACCGGUACGGCCGCCACUCGGAAACCUGAGGAUCACCCUGGUAAACCGUG [TrypAS 12 #AlternativeMS2 #Zipper #StaticStem]
apparent KD of MS2 coat protein (input ligand: arginine 13.2 mM): 26.9 nM
apparent KD of MS2 coat protein (input ligand: none): 25.2 nM
apparent KD of MS2 coat protein [1]: 33.5 nM
apparent KD of MS2 coat protein [2]: 31.1 nM
apparent KD of MS2 coat protein [3]: 23.3 nM

AUACAUGAGGAUCACCCAUGUAUAGAUGAAGGAGCGACCAGAGGGUCAGGUAGGUCGCAUCACAUGAGGAUCACCCAUGUAUCGA [DOUBLE!!! :-D #8]
apparent KD of MS2 coat protein (input ligand: arginine 13.2 mM): 33.6 nM
apparent KD of MS2 coat protein (input ligand: none): 56.8 nM
apparent KD of MS2 coat protein [1]: 53 nM
apparent KD of MS2 coat protein [2]: 67.2 nM
apparent KD of MS2 coat protein [3]: 47.1 nM

UUACGAGGCUAUCCACUUUGAUUUUGUGAUACCAGAAUAAUUUUAUUCCCUUGGCAGCAUGACAUGAGGAUCACCCAUGUGUCUU [SSTheo A #4]
apparent KD of MS2 coat protein (input ligand: arginine 13.2 mM): 34.3 nM
apparent KD of MS2 coat protein [1]: 47.4 nM
apparent KD of MS2 coat protein [3]: 42.5 nM

UAACAUGAGGAUCACCCAUGUUUGAAGGAACGAGGACCGGUACGGCCGCCACUCGACGAGUGGAUGAGAAGUGGGAUAGUGUGCU [Same State Trp A GF7]
apparent KD of MS2 coat protein (input ligand: arginine 13.2 mM): 15.3 nM
apparent KD of MS2 coat protein [1]: 18.2 nM
apparent KD of MS2 coat protein [2]: 14.3 nM

UCACAUGAGGAUCACCCAUGUGUCAGAGAAGGAGCGGCCGCAAGGCCAGGUAGGUCGCUCAGGUAGCGUGAGGAUCACCCGUGUG [#1 Exclusion - Arginine A Attempt #10 (Inspired by cyborg)]
apparent KD of MS2 coat protein (input ligand: arginine 13.2 mM): 23.6 nM
apparent KD of MS2 coat protein (input ligand: none): 118 nM
apparent KD of MS2 coat protein [1]: 213 nM
apparent KD of MS2 coat protein [2]: 141 nM
apparent KD of MS2 coat protein [3]: 117 nM

UAAGUUAGGGCGGCCGCCACUCGAACAUGAGGAUCACCCAUGUAAAUUAAUUAAAGGACAUGAAUGAGGACCGGGCCAAGUUAGA [Same State - Tryptophan B / A]
apparent KD of MS2 coat protein (input ligand: arginine 13.2 mM): 13.9 nM
apparent KD of MS2 coat protein [1]: 20.2 nM
apparent KD of MS2 coat protein [2]: 15.2 nM

ACGAACGAUAGCGAUACCAGACGUACAUGAGGAUCACCCAUGUUUUGGGUAAGGUUAAUAGUCCCUUGGCAGCGCUUUAAGUUCG [#10 Exclusion-TheophyllineB]
apparent KD of MS2 coat protein (input ligand: arginine 13.2 mM): 50.5 nM
apparent KD of MS2 coat protein [1]: 89.7 nM
apparent KD of MS2 coat protein [3]: 59 nM

AUAAAUAAUAAAUAAAAUAAAAUGGGUGAACGAGGACCGGUACGGCCGCCACUCGGACAUGAGGAUCACCCAUGUCCAUGUGAAA [#21 Exclusion Tryptophan A]
apparent KD of MS2 coat protein (input ligand: arginine 13.2 mM): 15.6 nM
apparent KD of MS2 coat protein [1]: 20.3 nM
apparent KD of MS2 coat protein [2]: 22.7 nM

UGUUUUAAAAGUGAUACCAGACAAACAUGAGGAUCACCCAUGUAACAUGAGAGAUAAUAAGUCCCUUGGCAGCACAUAAUUAGUA [JR_Nu_SSTheophyB_Sub028]
apparent KD of MS2 coat protein (input ligand: arginine 13.2 mM): 27 nM
apparent KD of MS2 coat protein [1]: 33.1 nM
apparent KD of MS2 coat protein [3]: 31.5 nM

UGUACCAUGUCGGCCGCCACUCAUGAUAAACAUGAGGAUCACCCAUGUGGCGUCAAAGACGCUAUGAGGACCGGGACAUGGUACU [TryBS Zipper 3 #StaticStem #Zipper]
apparent KD of MS2 coat protein (input ligand: arginine 13.2 mM): 15.3 nM
apparent KD of MS2 coat protein [1]: 19.9 nM
apparent KD of MS2 coat protein [2]: 15.7 nM

AUACAUGAGUGUUUGAUUAUAGAAACUGAAGGAGCGUGGUAGUACACAGGUAGGUCGCAGUAAAUACAUGAGGAUCACCCAUGUU [JR_Nu_SSArginiA_Sub026]
apparent KD of MS2 coat protein (input ligand: arginine 13.2 mM): 29.2 nM
apparent KD of MS2 coat protein (input ligand: none): 32.9 nM
apparent KD of MS2 coat protein [1]: 36.5 nM
apparent KD of MS2 coat protein [2]: 36.5 nM
apparent KD of MS2 coat protein [3]: 38.4 nM

AUGCAUAGCGGAAGGAGCGCAAUAGAAUGACAUGAGGAUCACCCAUGUGUGUGAUGUGGGUUGCAGGUAGGUCGCCGAGUGGUAU [Exclusion - Arginine B (Freestyle 2)]
apparent KD of MS2 coat protein (input ligand: arginine 13.2 mM): 84 nM
apparent KD of MS2 coat protein (input ligand: none): 92 nM
apparent KD of MS2 coat protein [1]: 128 nM
apparent KD of MS2 coat protein [2]: 108 nM
apparent KD of MS2 coat protein [3]: 90.5 nM

UUCAGCUAGUCGGCCGCCACUACAUGAGGAUCACCCAUGUCGGUCCUCACUGCUUCGGCAGUGUGUAGGACCGGGACUAGCUGAG
apparent KD of MS2 coat protein (input ligand: arginine 13.2 mM): 62 nM
apparent KD of MS2 coat protein [1]: 93.6 nM
apparent KD of MS2 coat protein [2]: 91.3 nM
